Assays:
Experiment in all cases: cell-based or functional assay
[1] = target: EGFR (h) (human (h), UniProt P00533 696-1210, limits assumed)
[2] = target: CK2 (h) (human (h), UniProt P68400 1-391)
[3] = target: SAPK2 a (h) (human (h), UniProt Q16539 1-360)
[4] = target: T1, IRAK4 (h) (human (h), UniProt Q9NWZ3 1-460, limits assumed)
T1 sequence (looked up): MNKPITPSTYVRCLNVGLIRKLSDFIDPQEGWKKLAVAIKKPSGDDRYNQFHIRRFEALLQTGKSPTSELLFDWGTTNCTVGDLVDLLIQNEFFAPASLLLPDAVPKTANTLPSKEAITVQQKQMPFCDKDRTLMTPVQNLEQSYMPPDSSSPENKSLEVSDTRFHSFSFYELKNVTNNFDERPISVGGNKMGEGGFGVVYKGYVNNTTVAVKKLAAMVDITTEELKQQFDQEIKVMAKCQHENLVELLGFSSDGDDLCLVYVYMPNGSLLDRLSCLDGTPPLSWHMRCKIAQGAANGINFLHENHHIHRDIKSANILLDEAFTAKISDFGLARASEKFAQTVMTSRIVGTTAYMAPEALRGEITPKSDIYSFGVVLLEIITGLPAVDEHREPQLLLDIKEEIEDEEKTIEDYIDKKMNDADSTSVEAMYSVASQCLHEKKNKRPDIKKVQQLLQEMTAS

[5] = target: PKCδ (h) (human (h), UniProt Q05655 1-676)
PKCδ (h), sequence (Q05655 whole entry, stated change not applied): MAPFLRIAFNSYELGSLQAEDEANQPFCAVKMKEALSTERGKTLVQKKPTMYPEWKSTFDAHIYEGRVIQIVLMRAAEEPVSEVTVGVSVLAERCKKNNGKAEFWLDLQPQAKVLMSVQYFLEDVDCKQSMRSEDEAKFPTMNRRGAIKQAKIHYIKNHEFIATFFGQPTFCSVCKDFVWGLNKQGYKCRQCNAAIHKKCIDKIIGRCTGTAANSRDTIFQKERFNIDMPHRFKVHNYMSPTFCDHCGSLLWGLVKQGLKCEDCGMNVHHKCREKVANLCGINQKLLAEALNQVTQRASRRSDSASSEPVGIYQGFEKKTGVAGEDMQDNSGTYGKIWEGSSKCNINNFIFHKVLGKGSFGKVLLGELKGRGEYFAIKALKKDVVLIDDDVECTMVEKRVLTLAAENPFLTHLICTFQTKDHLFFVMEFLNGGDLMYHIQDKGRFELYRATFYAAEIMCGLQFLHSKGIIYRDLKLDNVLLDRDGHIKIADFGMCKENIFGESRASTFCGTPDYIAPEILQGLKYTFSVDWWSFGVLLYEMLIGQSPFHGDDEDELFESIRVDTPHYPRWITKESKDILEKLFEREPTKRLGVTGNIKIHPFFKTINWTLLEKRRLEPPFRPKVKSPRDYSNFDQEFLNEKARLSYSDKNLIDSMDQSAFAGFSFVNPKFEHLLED

[6] = target: CaMKI (h) (human (h), UniProt Q14012 1-370, limits assumed)
CaMKI (h), sequence (Q14012 whole entry): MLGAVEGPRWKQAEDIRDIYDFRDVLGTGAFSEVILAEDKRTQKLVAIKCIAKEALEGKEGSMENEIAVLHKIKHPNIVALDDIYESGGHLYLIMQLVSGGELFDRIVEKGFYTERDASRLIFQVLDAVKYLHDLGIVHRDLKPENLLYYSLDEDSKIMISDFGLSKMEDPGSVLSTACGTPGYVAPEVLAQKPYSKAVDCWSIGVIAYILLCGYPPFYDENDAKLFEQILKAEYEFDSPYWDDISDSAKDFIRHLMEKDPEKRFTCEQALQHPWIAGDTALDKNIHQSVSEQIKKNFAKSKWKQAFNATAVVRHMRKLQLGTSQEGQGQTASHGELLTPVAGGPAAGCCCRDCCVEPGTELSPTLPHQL

[7] = target: Src(1-530) (h) (human (h), UniProt P12931 1-530)
[8] = target: T2, EphA2 (h) (human (h), UniProt P29317 591-976, limits assumed)
T2 sequence (looked up): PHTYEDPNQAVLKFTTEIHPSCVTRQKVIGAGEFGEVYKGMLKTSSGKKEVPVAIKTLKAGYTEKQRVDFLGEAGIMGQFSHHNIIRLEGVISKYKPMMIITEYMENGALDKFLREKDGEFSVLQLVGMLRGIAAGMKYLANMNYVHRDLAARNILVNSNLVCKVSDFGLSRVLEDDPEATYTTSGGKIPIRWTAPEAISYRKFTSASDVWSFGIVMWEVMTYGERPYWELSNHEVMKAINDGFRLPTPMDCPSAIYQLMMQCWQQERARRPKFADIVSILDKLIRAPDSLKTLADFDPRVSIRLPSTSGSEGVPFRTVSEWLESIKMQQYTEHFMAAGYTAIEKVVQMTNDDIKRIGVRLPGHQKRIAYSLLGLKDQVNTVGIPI

[9] = target: GSK3β (h) (human (h), UniProt P49841 1-420)
[10] = target: IGF-IR (h) (human (h), UniProt P08069 959-1367, limits assumed)
IGF-IR (h), sequence (P08069 959-1367 limits assumed): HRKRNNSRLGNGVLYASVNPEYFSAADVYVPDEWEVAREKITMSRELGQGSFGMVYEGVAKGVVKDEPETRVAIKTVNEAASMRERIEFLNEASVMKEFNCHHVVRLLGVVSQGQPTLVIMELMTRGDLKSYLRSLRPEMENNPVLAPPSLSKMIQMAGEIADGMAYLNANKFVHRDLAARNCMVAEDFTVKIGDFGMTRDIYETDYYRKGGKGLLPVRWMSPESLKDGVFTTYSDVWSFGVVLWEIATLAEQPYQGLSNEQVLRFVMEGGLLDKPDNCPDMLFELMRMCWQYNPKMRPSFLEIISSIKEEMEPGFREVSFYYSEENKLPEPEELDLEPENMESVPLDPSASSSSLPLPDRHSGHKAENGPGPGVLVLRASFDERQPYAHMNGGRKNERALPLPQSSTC

[11] = target: cKit (h) (human (h), UniProt P10721 544-976, limits assumed)
[12] = target: PKB β (h) (human (h), UniProt P31751 1-481, limits assumed)
PKB β (h), sequence (P31751 whole entry): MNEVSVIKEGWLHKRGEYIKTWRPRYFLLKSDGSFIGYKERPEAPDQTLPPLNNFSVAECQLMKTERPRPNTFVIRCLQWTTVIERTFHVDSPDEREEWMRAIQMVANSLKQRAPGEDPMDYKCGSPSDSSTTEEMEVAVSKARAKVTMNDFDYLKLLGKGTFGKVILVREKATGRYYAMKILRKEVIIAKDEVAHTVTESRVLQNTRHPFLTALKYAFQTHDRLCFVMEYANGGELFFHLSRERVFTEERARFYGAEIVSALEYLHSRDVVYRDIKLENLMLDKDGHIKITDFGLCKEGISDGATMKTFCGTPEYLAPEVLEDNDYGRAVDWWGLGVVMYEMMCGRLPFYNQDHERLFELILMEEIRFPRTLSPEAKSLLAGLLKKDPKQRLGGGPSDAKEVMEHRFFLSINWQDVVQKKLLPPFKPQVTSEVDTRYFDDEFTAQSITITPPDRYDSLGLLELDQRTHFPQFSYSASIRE

[13] = target: T3, Flt3 (h) (human (h), UniProt P36888 564-993, limits assumed)
T3 sequence (looked up): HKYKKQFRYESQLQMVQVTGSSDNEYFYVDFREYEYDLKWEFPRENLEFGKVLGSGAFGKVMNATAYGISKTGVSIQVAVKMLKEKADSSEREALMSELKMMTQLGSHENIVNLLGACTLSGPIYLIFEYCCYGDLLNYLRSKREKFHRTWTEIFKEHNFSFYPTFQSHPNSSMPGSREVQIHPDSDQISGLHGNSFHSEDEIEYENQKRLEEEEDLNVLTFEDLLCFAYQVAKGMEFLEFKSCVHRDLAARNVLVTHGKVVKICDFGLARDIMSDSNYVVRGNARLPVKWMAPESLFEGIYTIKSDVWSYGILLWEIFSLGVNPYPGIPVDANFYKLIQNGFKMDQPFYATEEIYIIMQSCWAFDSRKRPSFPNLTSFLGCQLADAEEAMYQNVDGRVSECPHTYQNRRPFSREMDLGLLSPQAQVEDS

[14] = target: MAPKAP-K3 (h) (human (h), UniProt Q16644 1-382, limits assumed)
MAPKAP-K3 (h), sequence (Q16644 whole entry): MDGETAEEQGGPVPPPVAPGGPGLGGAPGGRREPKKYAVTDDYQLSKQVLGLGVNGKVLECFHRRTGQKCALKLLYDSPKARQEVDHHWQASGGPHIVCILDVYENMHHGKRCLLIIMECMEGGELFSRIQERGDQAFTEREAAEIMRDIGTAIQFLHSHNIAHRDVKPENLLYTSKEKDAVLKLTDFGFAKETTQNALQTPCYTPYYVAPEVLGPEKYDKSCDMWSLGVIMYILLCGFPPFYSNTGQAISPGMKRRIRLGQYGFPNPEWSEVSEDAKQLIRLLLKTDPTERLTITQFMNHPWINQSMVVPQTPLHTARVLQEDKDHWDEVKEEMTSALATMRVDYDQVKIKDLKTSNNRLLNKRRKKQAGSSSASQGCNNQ

[15] = target: AMPK (r) (rat (r), UniProt Q09137 1-552, limits assumed)
AMPK (r), sequence (Q09137 whole entry): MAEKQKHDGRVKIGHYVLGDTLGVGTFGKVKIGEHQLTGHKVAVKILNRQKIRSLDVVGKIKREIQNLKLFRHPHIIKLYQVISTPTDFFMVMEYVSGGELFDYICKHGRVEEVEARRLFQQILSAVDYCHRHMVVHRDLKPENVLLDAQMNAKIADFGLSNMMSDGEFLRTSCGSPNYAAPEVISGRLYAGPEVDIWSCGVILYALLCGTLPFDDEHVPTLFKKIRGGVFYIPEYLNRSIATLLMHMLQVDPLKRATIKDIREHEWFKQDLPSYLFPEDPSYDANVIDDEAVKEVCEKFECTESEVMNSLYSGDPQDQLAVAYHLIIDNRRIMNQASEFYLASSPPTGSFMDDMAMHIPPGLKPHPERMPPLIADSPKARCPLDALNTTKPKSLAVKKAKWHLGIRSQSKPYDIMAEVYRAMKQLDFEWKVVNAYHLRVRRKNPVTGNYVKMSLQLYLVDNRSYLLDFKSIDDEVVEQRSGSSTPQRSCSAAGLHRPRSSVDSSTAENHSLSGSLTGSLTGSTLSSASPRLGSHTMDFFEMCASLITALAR

[16] = target: ROCK-1 (h) (human (h), UniProt Q13464 17-535, limits assumed)
ROCK-1 (h), sequence (Q13464 17-535 limits assumed): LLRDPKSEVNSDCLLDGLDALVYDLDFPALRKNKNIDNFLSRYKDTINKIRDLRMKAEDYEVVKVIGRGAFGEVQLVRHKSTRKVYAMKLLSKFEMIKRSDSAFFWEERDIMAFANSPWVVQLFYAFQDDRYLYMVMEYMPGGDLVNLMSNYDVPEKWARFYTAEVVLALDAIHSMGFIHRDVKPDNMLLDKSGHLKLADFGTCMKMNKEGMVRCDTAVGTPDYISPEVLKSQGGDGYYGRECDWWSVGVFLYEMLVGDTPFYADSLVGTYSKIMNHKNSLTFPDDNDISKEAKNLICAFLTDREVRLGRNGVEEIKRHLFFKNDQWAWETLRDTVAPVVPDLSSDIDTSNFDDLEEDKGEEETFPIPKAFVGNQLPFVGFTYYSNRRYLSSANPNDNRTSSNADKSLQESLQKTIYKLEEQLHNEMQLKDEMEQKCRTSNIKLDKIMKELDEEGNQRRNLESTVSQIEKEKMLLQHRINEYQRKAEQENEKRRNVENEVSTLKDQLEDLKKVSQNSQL

[17] = target: Lck (h) (human (h), UniProt P06239 1-509)
Lck (h), sequence (P06239 whole entry): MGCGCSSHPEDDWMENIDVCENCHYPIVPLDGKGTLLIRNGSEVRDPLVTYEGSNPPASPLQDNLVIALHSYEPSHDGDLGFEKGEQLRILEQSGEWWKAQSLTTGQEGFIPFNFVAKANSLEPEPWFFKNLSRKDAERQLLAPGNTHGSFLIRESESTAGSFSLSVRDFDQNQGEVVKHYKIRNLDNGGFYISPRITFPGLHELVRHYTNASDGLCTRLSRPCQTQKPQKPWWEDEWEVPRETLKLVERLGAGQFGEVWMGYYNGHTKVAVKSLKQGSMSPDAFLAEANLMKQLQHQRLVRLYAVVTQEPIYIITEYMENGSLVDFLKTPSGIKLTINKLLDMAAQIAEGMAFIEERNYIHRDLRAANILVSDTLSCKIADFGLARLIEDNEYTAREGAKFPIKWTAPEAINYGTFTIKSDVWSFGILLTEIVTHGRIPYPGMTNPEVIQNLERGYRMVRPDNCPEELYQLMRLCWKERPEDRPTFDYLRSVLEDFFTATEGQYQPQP

[18] = target: Rsk2 (h) (human (h), UniProt P51812 1-740)
Rsk2 (h), sequence (P51812 whole entry): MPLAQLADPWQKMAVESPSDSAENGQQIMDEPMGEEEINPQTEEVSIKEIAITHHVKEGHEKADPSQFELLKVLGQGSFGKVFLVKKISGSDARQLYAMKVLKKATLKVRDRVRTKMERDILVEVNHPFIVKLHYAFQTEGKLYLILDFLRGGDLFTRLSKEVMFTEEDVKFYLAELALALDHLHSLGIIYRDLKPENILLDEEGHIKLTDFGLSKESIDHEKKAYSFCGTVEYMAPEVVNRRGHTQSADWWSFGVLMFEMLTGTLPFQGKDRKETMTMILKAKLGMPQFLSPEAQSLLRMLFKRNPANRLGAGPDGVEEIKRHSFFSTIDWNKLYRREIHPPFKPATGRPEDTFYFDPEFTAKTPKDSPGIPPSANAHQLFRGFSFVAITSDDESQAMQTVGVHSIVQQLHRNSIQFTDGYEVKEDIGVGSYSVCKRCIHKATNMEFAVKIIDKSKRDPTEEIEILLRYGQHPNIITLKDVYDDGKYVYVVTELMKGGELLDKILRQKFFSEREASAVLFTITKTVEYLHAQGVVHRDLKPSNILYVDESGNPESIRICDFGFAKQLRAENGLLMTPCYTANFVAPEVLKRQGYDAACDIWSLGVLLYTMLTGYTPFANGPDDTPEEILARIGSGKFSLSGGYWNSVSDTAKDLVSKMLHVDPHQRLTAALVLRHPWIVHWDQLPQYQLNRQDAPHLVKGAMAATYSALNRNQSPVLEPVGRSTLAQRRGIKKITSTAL

[19] = target: MLCK (h) (human (h))

SAPK2 a (h), sequence (Q16539 whole entry): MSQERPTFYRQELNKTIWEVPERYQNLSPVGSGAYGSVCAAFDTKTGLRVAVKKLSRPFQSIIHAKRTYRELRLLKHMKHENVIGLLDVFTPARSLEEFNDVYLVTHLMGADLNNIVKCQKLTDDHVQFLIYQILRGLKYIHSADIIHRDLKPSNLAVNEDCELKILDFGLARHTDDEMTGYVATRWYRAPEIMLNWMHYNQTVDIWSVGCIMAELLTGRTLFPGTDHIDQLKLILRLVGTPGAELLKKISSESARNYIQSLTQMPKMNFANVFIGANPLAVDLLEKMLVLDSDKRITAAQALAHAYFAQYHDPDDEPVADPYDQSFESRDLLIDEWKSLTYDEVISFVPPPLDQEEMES

## KAFAKLAARLYRKALARQLGVAA
[1]
  Profile-1 @ = 100 µm (kinase profiler assay): 16
[2]
  Profile-1 @ = 100 µm (kinase profiler assay): 79
[3]
  Profile-1 @ = 100 µm (kinase profiler assay): 59
[4]
  Profile-1 @ = 100 µm (kinase profiler assay): 16
[5]
  Profile-1 @ = 100 µm (kinase profiler assay): 24
[6]
  Profile-1 @ = 100 µm (kinase profiler assay): 0
[7]
  Profile-1 @ = 100 µm (kinase profiler assay): 3
[8]
  Profile-1 @ = 100 µm (kinase profiler assay): 22
[9]
  Profile-1 @ = 100 µm (kinase profiler assay): 184
[10]
  Profile-1 @ = 100 µm (kinase profiler assay): 76
[11]
  Profile-1 @ = 100 µm (kinase profiler assay): 31
[12]
  Profile-1 @ = 100 µm (kinase profiler assay): 28
[13]
  Profile-1 @ = 100 µm (kinase profiler assay): 20
[14]
  Profile-1 @ = 100 µm (kinase profiler assay): 17
[15]
  Profile-1 @ = 100 µm (kinase profiler assay): 118
[16]
  Profile-1 @ = 100 µm (kinase profiler assay): 29
[17]
  Profile-1 @ = 100 µm (kinase profiler assay): 847
[18]
  Profile-1 @ = 100 µm (kinase profiler assay): 6
[19]
  Profile-1 @ = 100 µm (kinase profiler assay): 2
